Measured values: patent US20200188477A1, “A MEDICAMENT FOR THE TREATMENT OF DISEASES BY BIOFILM FORMING MICROORGANISMS” (priority 2017, published 2020)

Target: M. tuberculosis PpiB overexpressed in M. smegmatis (Ms_PpiB Tet+) (Mycobacterium tuberculosis) (UniProt P9WHW1)
Test: cell-based or functional assay

UniProt P9WHW1, sequence (P9WHW1 whole entry): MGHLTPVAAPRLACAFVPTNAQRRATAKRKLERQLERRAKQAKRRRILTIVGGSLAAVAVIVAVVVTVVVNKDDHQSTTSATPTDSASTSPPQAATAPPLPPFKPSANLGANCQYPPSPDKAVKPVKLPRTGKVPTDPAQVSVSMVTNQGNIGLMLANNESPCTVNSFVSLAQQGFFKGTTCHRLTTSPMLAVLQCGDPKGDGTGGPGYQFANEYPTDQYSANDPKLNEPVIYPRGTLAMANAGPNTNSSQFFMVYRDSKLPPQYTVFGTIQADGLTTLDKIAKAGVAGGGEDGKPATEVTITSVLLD

Substance: cyclosporine A (peptide)
- biofilm formation (crystal violet assay, absorbance at 550 nm): > 100 µg/mL
